Two molecules from patent US9770469B2, “Methods of reprogramming renal cells” (Tel HaShomer Medical Research Infrastructure and Services …, priority 2009, dated 2017) can be followed below.

The subject of experiment [1] is human adult kidney cells. The experiment in a line: qRT-PCR after Wnt antagonists DKK1/sFRP1 with or without VPA. In kind it is cell-based. The following applies: DKK1 3 μg/ml or sFRP1 7 μg/ml 72 h; for Osr1 expression, Wnt antagonist combined with VPA / Six2 expression, Wnt antagonist combined with VPA: VPA 4 mM last 24 h; for Osr1 expression, Wnt antagonist alone: no VPA. As to the method:
(§1) Cell Treatment: Cells were treated for 24 hours with growth medium supplemented with 1, 2, or 4 mM VPA (Sigma) or with H2O for control sample. Otherwise, cells were treated for 24 hours with growth medium supplemented with the combination of 75 μM TSA (Sigma) and 250 μM 5-AZA (Sigma) or with 100% Ethanol and Acetic Acid (Acetic Acid: H2O 1:1) for control sample. […] 24 hours prior to harvesting VPA at a concentration of 4 mM was added to the cell culture.
(§2) Quantitative Reverse Transcription-PCR: Total RNA from kidney tissue cultured cells was isolated using the TRIZOL reagent (Invitrogen) according to the manufacturer's protocols. cDNA synthesis was carried out using Verso kit (Thermo scientific) with Random primers. Quantitative RT PCR was performed using an ABI7900HT sequence detection system (Perkin-Elmer/Applied Biosystems) in the presence of SYBR green (SYBR green PCR kit; Qiagen). Each analysis reaction was performed in duplicates or triplicates. GapDH was used as an endogenous control throughout all experimental analyses. Analysis was performed using the −ΔΔCt method, which determines fold changes in gene expression relative to a comparator sample.
A general note: Quantitative PCR measures a nucleic acid by following its amplification.

The test system of experiment [2] is human fetal kidney cells. The description is as above. In kind it is cell-based. As to the method:
as §1, §2

[3] abbreviates: fetal kidney cells, DKK1 3 μg/ml or sFRP1 7 μg/ml 72 h, VPA 4 mM last 24 h.
[4] abbreviates: fetal kidney cells, DKK1 3 μg/ml or sFRP1 7 μg/ml 72 h, no VPA.

B1: DKK1: Wnt pathway antagonist (R&D systems) (protein, UniProt O94907 32-266, looked up)
Dickkopf-related protein 1: TLNSVLNSNAIKNLPPPLGGAAGHPGSAVSAAPGILYPGGNKYQTIDNYQPYPCAEDEECGTDEYCASPTRGGDAGVQICLACRKRRKRCMRHAMCCPGNYCKNGICVSSDQNHFRGEIEETITESFGNDHSTLDGYSRRTTLSSKMYHTKGQEGSVCLRSSDCASGLCCARHFWSKICKPVLKEGQVCTKHRRKGSHGLEIFQRCYCGEGLSCRIQKDHHQASNSSRLHTCQRH
As to B1, in experiment [1], the “Osr1 expression, Wnt antagonist combined with VPA” value (shortened to “Osr1 expression … with VPA”) is given as “synergistic affect”; the “Six2 expression, Wnt antagonist combined with VPA” value is “synergistic effect”; the “Osr1 expression, Wnt antagonist alone” value is reported as “little effect”. Moreover, the “Osr1 expression … with VPA” value in experiment [2] (setting [3]) is reported as “synergistic affect”. Besides, the “Osr1 expression, Wnt antagonist alone” value in experiment [2] (setting [4]) is “little effect”.

B2: sFRP1: Wnt pathway antagonist (R&D systems) (protein, UniProt Q8N474 32-314, looked up)
Secreted frizzled-related …: SEYDYVSFQSDIGPYQSGRFYTKPPQCVDIPADLRLCHNVGYKKMVLPNLLEHETMAEVKQQASSWVPLLNKNCHAGTQVFLCSLFAPVCLDRPIYPCRWLCEAVRDSCEPVMQFFGFYWPEMLKCDKFPEGDVCIAMTPPNATEASKPQGTTVCPPCDNELKSEAIIEHLCASEFALRMKIKEVKKENGDKKIVPKKKKPLKLGPIKKKDLKKLVLYLKNGADCPCHQLDNLSHHFLIMGRKVKSQYLLTAIHKWDKKNKEFKNFMKKMKNHECPTFQSVFK
Regarding B2, the “Osr1 expression … with VPA” value in experiment [1] and in experiment [2] (setting [3]) was “synergistic affect” in each case. Also, the “Six2 expression, Wnt antagonist combined with VPA” value was “synergistic effect” in experiment [1] and “synergistic effect” in experiment [2] (fetal kidney cells, sFRP1 7 μg/ml 72 h, VPA 4 mM last 24 h). For the same molecule, the “Osr1 expression, Wnt antagonist alone” value in experiment [1] and in experiment [2] (setting [4]) was “little effect” throughout. Moreover, in experiment [2] (FK cells, DKK1 3 μg/ml or sFRP1 7 μg/ml 72 h, no VPA), the “Six2 expression, Wnt antagonist alone” value is listed as “elevated Six2 levels”.
